Data as given in the supplement of paper PMC6755084.

B1: minF1; the commonest letter at each place (parent)
chain: GAGACCGCAACTGAAAAGTTGTTATCAGAAATGGATGGGTTGAATTTCTGCACGTAGAAGCAAAAGGC

Variants of: B1
Test: fraction ligated after 30 min (ligated reads / total reads); higher = more ligase activity
Details: with F1*subA RNA substrate (template-directed ligation), 42 °C
In short: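 Templates from an oligo pool encoding minimized ligase ribozyme variants were amplified by PCR, transcribed with T7, and purified on gels. Gel electrophoresis separated ligated from unligated RNAs, which were then reverse transcribed using barcoded primers and sequenced on a MiSeq, keeping core bases with quality ≥30. For each variant, fraction ligated equals ligated reads divided by total reads.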

Row | Variant | fraction ligated
1 | C26G A44T | 0.0283
2 | C26G A44G | 0.0117
3 | C26A A27G | 0.481
4 | C26A A27C | 0.134
5 | C26A A27T | 0.0953
6 | T25G A31T | 0.0111
7 | T25G A31C | 0.0154
8 | T25G A31G | 0.0115
9 | A24C T36A | 0.0726
10 | A24C T36C | 0.0109
11 | A24C T36G | 0.438
12 | C26A G28C | 0.0637
13 | C26A G28T | 0.117
14 | C26A G28A | 0.0578
15 | T25G A44G | 0.00956
16 | T25G A44C | 0.00312
17 | T25G A44T | 0.00667
18 | A24G T25G | 0.00212
19 | A24G T25C | 0.01
20 | A24G T25A | 0.00617
21 | T25C A44C | 0.00738
22 | T25C A44T | 0.0143
23 | T25C A44G | 0.0106
24 | T25A A30G | 0.00687

Row | Variant | fraction ligated
25 | T25A A30T | 0.0158
26 | T25A A30C | 0.0114
27 | C26A G33A | 0.19
28 | C26A G33C | 0.0427
29 | C26A G33T | 0.0279
30 | T25A G28C | 0.00741
31 | T25A G28A | 0.011
32 | T25A G28T | 0.0157
33 | A24T A30T | 0.00805
34 | A24T A30C | 0.00942
35 | A24T A30G | 0.0104
36 | A24G G33C | 0.0566
37 | A24G G33A | 0.294
38 | A24G G33T | 0.0804
39 | A24G G34A | 0.00498
40 | A24G G34C | 0.00145
41 | A24G G34T | 0.000849
42 | C26A G42C | 0.00168
43 | C26A G42T | 0.00182
44 | C26A G42A | 0.00533
45 | A24T A31T | 0.00682
46 | A24T A31G | 0.00616
47 | A24T A31C | 0.00611
48 | T25A G37A | 0.00183

Row | Variant | fraction ligated
49 | T25A G37T | 0.00505
50 | T25A G37C | 0.00598
51 | C26A G34T | 0.00758
52 | C26A G34A | 0.0394
53 | C26A G34C | 0.00194
54 | T25A A31G | 0.0139
55 | T25A A31C | 0.00883
56 | T25A A31T | 0.00708
57 | C26A G37T | 0.00569
58 | C26A G37C | 0.00572
59 | C26A G37A | 0.00335
60 | C26G A29G | 0.0311
61 | C26G A29T | 0.0347
62 | C26G A29C | 0.0431
63 | T25C G28T | 0.207
64 | T25C G28C | 0.165
65 | T25C G28A | 0.15
66 | C26A A35G | 0.00416
67 | C26A A35T | 0.00429
68 | C26A A35C | 0.00203
69 | C26G G42T | 0.00229
70 | C26G G42A | 0.00168
71 | C26G G42C | 0.00152
72 | T25C A31G | 0.057

Row | Variant | fraction ligated
73 | T25C A31C | 0.0548
74 | T25C A31T | 0.0613
75 | A24G A31C | 0.0105
76 | A24G A31T | 0.0427
77 | A24G A31G | 0.0578
78 | T25C T36G | 0.0541
79 | T25C T36C | 0.00974
80 | T25C T36A | 0.0394
81 | T25C A43C | 0.0068
82 | T25C A43T | 0.00508
83 | T25C A43G | 0.00741
84 | A24G G37A | 0.00154
85 | A24G G37C | 0.000862
86 | A24G G37T | 0.00318
87 | C26G T32A | 0.00367
88 | A24G A35C | 0.0163
89 | A24G A35G | 0.0312
90 | A24G A35T | 0.00297
91 | A24T G34C | 0.00388
92 | A24T G34T | 0.00322
93 | A24T G34A | 0.0316
94 | A24G A29C | 0.0668
95 | A24G A29G | 0.0952
96 | A24G A29T | 0.116

Row | Variant | fraction ligated
97 | A24T T25G | 0.00899
98 | A24T T25C | 0.0313
99 | A24T T25A | 0.0063
100 | C26G A43C | 0.00457
101 | C26G A43T | 0.00299
102 | C26G A43G | 0.00467
103 | T25C A30G | 0.0308
104 | T25C A30T | 0.0786
105 | T25C A30C | 0.081
106 | C26G A27G | 0.0369
107 | C26G A27T | 0.0725
108 | C26G A27C | 0.0501
109 | T25G A35G | 0.00379
110 | T25G A35C | 0.845
111 | T25G A35T | 0.396
112 | T25C G42A | 0.00331
113 | T25C G42C | 0.00383
114 | T25C G42T | 0.00269
115 | T25C T32A | 0.00778
116 | T25C T32C | 0.00341
117 | T25C T32G | 0.00219
118 | T25A C26T | 0.00642
119 | T25A C26A | 0.00271
120 | T25A C26G | 0.00462

Row | Variant | fraction ligated
121 | C26A A44G | 0.03
122 | C26A A44C | 0.0236
123 | C26A A44T | 0.0723
124 | A24T G28C | 0.0438
125 | A24T G28A | 0.0366
126 | A24T G28T | 0.0703
127 | T25A G33A | 0.0105
128 | T25A G33C | 0.00366
129 | T25A G33T | 0.00763
130 | T25G G28A | 0.0158
131 | T25G G28C | 0.0182
132 | T25G G28T | 0.0241
133 | A24T T32A | 0.00395
134 | A24T T32G | 0.00134
135 | A24T T32C | 0.000877
136 | A24T | 0.011
137 | A24G | 0.122
138 | A24T A44G | 0.0057
139 | A24T A44T | 0.00772
140 | A24T A44C | 0.00276
141 | A24G A30G | 0.185
142 | A24G A30T | 0.058
143 | A24G A30C | 0.0534
144 | C26A A29C | 0.0944

Row | Variant | fraction ligated
145 | C26A A29T | 0.112
146 | C26A A29G | 0.0844
147 | A24T A29C | 0.0116
148 | A24T A29G | 0.00599
149 | A24T A29T | 0.0058
150 | T25C G37C | 0.00302
151 | T25C G37T | 0.00523
152 | T25C G37A | 0.00575
153 | C26G A35C | 0.00486
154 | C26G A35T | 0.000597
155 | C26G A35G | 0.00566
156 | T25G A27G | 0.0208
157 | T25G A27T | 0.0947
158 | T25G A27C | 0.0754
159 | T25C A29C | 0.0251
160 | T25C A29G | 0.0416
161 | T25C A29T | 0.0467
162 | A24G A44G | 0.0186
163 | A24G A44T | 0.016
164 | A24G A44C | 0.00892
165 | A24T C26A | 0.00282
166 | A24T C26T | 0.0111
167 | A24T C26G | 0.0102
